This test has as its target vesicular stomatitis virus (VSV) large (L) protein (vesicular stomatitis virus (VSV) …, UniProt P03523 1-2109). Put plainly: cryo-EM structure.

Chain of vesicular stomatitis virus (VSV) large (L) protein (P03523 whole entry): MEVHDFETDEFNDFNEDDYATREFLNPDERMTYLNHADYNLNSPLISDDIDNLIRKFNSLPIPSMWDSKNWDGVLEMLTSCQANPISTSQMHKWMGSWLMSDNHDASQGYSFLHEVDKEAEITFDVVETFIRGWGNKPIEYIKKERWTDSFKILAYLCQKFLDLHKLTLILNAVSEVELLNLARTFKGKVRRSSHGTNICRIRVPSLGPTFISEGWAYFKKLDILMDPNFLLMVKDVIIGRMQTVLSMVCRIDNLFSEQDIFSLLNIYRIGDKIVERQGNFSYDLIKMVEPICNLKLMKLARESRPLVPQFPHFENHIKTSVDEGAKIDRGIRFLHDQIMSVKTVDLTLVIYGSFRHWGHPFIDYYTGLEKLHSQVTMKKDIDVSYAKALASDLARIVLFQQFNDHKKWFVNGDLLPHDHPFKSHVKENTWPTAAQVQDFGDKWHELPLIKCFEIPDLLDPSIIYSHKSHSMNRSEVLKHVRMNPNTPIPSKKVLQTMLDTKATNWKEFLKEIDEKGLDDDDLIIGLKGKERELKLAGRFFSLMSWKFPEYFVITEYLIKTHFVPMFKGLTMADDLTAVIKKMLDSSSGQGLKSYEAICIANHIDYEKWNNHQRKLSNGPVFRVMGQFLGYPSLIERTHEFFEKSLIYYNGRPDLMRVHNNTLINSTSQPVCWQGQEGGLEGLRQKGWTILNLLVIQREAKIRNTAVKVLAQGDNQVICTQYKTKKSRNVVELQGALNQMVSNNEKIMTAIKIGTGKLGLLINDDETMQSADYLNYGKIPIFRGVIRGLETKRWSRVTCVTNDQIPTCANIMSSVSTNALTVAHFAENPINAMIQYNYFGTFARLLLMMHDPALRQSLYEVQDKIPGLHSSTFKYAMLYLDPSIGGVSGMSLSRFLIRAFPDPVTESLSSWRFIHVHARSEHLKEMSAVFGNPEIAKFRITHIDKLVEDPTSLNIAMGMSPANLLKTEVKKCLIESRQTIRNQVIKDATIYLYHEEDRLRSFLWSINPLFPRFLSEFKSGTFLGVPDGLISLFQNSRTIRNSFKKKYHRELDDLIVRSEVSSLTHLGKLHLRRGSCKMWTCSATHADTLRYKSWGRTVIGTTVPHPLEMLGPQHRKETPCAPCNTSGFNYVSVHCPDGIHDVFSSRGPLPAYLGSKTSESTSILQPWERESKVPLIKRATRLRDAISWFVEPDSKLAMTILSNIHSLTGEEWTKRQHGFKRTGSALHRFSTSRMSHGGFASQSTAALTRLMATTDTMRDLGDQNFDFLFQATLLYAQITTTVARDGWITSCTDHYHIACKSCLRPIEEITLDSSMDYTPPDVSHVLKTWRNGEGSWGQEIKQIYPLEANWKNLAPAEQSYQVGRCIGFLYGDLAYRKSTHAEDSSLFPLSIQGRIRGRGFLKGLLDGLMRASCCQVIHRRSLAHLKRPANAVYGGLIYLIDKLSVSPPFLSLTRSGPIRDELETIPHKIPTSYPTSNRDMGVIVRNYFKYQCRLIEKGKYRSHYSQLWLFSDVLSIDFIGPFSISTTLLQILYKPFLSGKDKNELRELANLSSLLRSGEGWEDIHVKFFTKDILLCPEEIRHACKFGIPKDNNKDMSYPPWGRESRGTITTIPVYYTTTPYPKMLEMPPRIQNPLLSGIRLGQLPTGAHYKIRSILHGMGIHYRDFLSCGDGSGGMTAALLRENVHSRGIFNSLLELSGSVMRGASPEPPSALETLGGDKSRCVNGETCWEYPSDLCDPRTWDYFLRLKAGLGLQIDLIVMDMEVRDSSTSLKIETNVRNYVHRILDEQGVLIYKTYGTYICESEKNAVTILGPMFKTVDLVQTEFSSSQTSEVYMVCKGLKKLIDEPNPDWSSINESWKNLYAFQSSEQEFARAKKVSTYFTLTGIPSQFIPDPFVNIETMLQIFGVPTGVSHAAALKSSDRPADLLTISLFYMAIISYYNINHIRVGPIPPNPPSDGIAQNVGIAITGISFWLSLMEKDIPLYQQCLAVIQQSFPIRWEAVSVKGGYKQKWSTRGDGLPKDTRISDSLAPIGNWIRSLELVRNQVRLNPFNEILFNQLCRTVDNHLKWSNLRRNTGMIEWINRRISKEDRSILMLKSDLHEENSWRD

B1: VSV phosphoprotein (P) fragment, residues 35-106 (domain or fragment)
chain: SNYELFQEDGVEEHTKPSYFQAADDSDTESEPEIEDNQGLYAQDPEAEQVEGFIQGPLDDYADEEVDVVFTS
For the molecule B1, the binding result is recorded as “binds”.

The values above are taken from article PMC7049099 (Cell reports, 2020).
